Measured values published in patent publication US20100136005A1.

Tests used:
human CD18 (human) = human CD18 (human) (UniProt P05107); experiment: cell-based or functional assay
rhesus CD18 (rhesus) = rhesus CD18 (rhesus) (UniProt H9Z8N5); experiment: cell-based or functional assay

Sequence of human CD18 (human) (P05107 23-769): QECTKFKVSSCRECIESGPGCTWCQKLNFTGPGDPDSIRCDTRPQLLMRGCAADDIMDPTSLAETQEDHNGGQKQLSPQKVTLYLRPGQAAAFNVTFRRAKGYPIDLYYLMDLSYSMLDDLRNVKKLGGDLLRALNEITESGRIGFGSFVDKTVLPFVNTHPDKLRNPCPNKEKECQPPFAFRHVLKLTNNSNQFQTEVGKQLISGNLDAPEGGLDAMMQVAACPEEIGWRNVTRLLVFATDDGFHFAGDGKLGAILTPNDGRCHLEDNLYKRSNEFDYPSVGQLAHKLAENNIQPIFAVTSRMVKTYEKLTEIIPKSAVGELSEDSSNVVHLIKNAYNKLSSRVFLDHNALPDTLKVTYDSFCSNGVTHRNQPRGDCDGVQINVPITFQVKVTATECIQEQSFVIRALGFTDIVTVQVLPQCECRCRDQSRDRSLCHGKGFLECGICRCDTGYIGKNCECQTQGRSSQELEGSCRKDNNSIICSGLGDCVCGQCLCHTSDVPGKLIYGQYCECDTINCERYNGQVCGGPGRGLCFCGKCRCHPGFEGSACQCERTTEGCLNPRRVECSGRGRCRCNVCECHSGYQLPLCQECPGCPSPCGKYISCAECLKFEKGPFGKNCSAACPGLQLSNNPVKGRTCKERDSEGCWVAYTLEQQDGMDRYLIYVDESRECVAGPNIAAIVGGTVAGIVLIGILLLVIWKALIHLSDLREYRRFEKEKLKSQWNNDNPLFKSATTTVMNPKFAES

IC50 Value (nM), Rh/HuCD11a:HuK cell adhesion (human CD18 (human)): 1.4 nM
IC50 Value (nM), RhLy:HuICAM cell adhesion (rhesus CD18 (rhesus)): 1.2 nM
IC50 Value (nM), RhLy:HuK cell adhesion (rhesus CD18 (rhesus)): 1.6 nM
IC50 Value (nM), rhesus mixed lymphocyte response (rhesus CD18 (rhesus)): 30.4 nM
Substance: murine anti-human CD18 antibody MHM23
